From PMC9159911 come the findings set out here.

The subject of the series is SmpB (small protein B) (Aeromonas veronii). Kind of series: MST. The conditions noted are these: […], pH 7.4), temperature not stated, binding buffer not stated.

On to PompA T52GC (CAT at +52 to TGC), for which the Kd (commonly the free concentration of one partner at which half of the binding sites on the other are occupied at equilibrium, for simple one-to-one binding) was determined as 126 µM.
The same measure for “PompA C52AT (native ompA promoter fragment)”: 0.93 µM.
